Laboratory results reported in patent US8889392B2, “Monolignol 4-O-methyltransferases and uses thereof” (Brookhaven Science Associates, LLC, priority 2010, dated 2014).

What was measured:
[1] = Kinetic parameters for 4-O-methylation of sinapyl alcohol; assay type: biochemical; conditions: for fold increase of catalytic efficiency compared with the wild-type enzyme: sinapyl alcohol; for Km / Vmax: substrate sinapyl alcohol, 4-O-methylation
[2] = Kinetic parameters for 4-O-methylation of coniferyl alcohol; assay type: biochemical; conditions: for fold increase of catalytic efficiency compared with the wild-type enzyme: coniferyl alcohol; for Km / Vmax: substrate coniferyl alcohol, 4-O-methylation
Description: E. coli transformants were inoculated in 96 well plates. Protein production was induced with 0.2 mM isopropyl β-D-1-thiogalactopyranoside, and the harvested cell cultures were lysed with 60 μl of BugBuster solution per well (Novagen). Enzymatic activity was screened using the lysates directly or after purification of the recombinant protein in a 96 well purification plate.
Screening was performed in a polypropylene microplate (Bio-Rad) containing 50 μl of the reaction in each well, 500 μM p-coniferyl-alcohol substrates, and 500 μM S-adenosyl-L-methionine augmented with (isotopic assay) or without (LC-MS assay) 0.005 μCi of [methyl-^14C]S-adenosyl-L-methionine, and 20 μl of lysates or purified protein (Ni^+ column eluate). (see Bhuiya, M. W. and Liu, C. J. (2010) J. Biol. Chem. 285:277-285 and its supplemental material).
To further optimize the catalytic efficiency of MOMT on the desired para-methylation of monolignols, based on the crystal structure of MOMT3, we identified additional amino acid residues that either directly contact or are proximate to the bound coniferyl alcohol, particularly the residues near the 3-methoxy-buried pocket. They are F130, A134, V138, L139, F157, Y161, N164, F166, Y168, H169, H173, F179, M183, N186, T319, L322, M323, A325, Y326, and N327. We then carried out the next round saturation mutagenesis on the recognized amino acid sites using MOMT3 as the parental template. […] The MOMT4 enzyme predominantly reacted with coniferyl and sinapyl alcohols, with preference for the latter, while the MOMT5 favors for coniferyl alcohol.

B1: T133I-E165I-F175I-F166W: IEMT tetra mutant derived from MOMT3 (protein)
chain: MGSTGNAEIQIIPTHSSDEEANLFAMQLASAAVLPMALKAAIELDVLEIMAKSVPPSGYISPAEIAAQLPTTNPEAPVMLDRVLRLLASYSVVTYTLRELPSGKVERLYGLAPVCKFLTKNEDGVSLAPFLLIATDKVLLEPWFYLKDAILEGGIPFNKAYGMNIWDYHGTDHRINKVFNKGMSSNSTITMKKILEMYNGFEGLTTIVDVGGGTGAVASMIVAKYPSINAINFDLPHVIQDAPAFSGVEHLGGDMFDGVPKGDAIFIKWICHDWSDEHCLKLLKNCYAALPDHGKVIVAEYILPPSPDPSIATKVVIHTDALMLAYNPGGKERTEKEFQALAMASGFRGFKVASCAFNTYVMEFLKTA
With B1 the “fold increase of catalytic efficiency compared with the wild-type enzyme” value (“fold increase of catalytic efficiency” below) [1] was ~200 fold, the Km [1] was 47 ± 8 µM and the Vmax [1] was 147 ± 4 nmol/mg/min. For the same molecule, the “fold increase of catalytic efficiency” value [2] was ~200 fold, the Km [2] was 117 ± 15 µM and the Vmax [2] was 496 ± 8 nmol/mg/min.

B2: T133I-E165I-F175I-F166W-H169F: IEMT penta mutant (MOMT5) (protein)
chain: MGSTGNAEIQIIPTHSSDEEANLFAMQLASAAVLPMALKAAIELDVLEIMAKSVPPSGYISPAEIAAQLPTTNPEAPVMLDRVLRLLASYSVVTYTLRELPSGKVERLYGLAPVCKFLTKNEDGVSLAPFLLIATDKVLLEPWFYLKDAILEGGIPFNKAYGMNIWDYFGTDHRINKVFNKGMSSNSTITMKKILEMYNGFEGLTTIVDVGGGTGAVASMIVAKYPSINAINFDLPHVIQDAPAFSGVEHLGGDMFDGVPKGDAIFIKWICHDWSDEHCLKLLKNCYAALPDHGKVIVAEYILPPSPDPSIATKVVIHTDALMLAYNPGGKERTEKEFQALAMASGFRGFKVASCAFNTYVMEFLKTA
With B2 the “fold increase of catalytic efficiency” value [1] was ~200 fold, the Km [1] was 37 ± 7 µM and the Vmax [1] was 124 ± 7 nmol/mg/min. For the same molecule, the “fold increase of catalytic efficiency” value [2] was ~200 fold, the Km [2] was 80 ± 6 µM and the Vmax [2] was 440 ± 10 nmol/mg/min.

B3: T133L-E165F: IEMT double mutant variant (protein)
chain: MGSTGNAEIQIIPTHSSDEEANLFAMQLASAAVLPMALKAAIELDVLEIMAKSVPPSGYISPAEIAAQLPTTNPEAPVMLDRVLRLLASYSVVTYTLRELPSGKVERLYGLAPVCKFLTKNEDGVSLAPFLLLATDKVLLEPWFYLKDAILEGGIPFNKAYGMNFFDYHGTDHRFNKVFNKGMSSNSTITMKKILEMYNGFEGLTTIVDVGGGTGAVASMIVAKYPSINAINFDLPHVIQDAPAFSGVEHLGGDMFDGVPKGDAIFIKWICHDWSDEHCLKLLKNCYAALPDHGKVIVAEYILPPSPDPSIATKVVIHTDALMLAYNPGGKERTEKEFQALAMASGFRGFKVASCAFNTYVMEFLKTA
With B3 the Km [1] was 382 ± 32 µM, the Vmax [1] was 103 ± 4 nmol/mg/min and the Km [2] was 280 ± 18 µM. It also gave a Vmax [2] of 117 ± 3 nmol/mg/min.

B4: T133I-E165I-F175I-Y161W: IEMT tetra mutant derived from MOMT3 (protein)
chain: MGSTGNAEIQIIPTHSSDEEANLFAMQLASAAVLPMALKAAIELDVLEIMAKSVPPSGYISPAEIAAQLPTTNPEAPVMLDRVLRLLASYSVVTYTLRELPSGKVERLYGLAPVCKFLTKNEDGVSLAPFLLIATDKVLLEPWFYLKDAILEGGIPFNKAWGMNIFDYHGTDHRINKVFNKGMSSNSTITMKKILEMYNGFEGLTTIVDVGGGTGAVASMIVAKYPSINAINFDLPHVIQDAPAFSGVEHLGGDMFDGVPKGDAIFIKWICHDWSDEHCLKLLKNCYAALPDHGKVIVAEYILPPSPDPSIATKVVIHTDALMLAYNPGGKERTEKEFQALAMASGFRGFKVASCAFNTYVMEFLKTA
With B4 the Km [1] was 219 ± 19 µM, the Vmax [1] was 259 ± 8 nmol/mg/min and the Km [2] was 196 ± 34 µM. The Vmax [2] was 584 ± 37 nmol/mg/min.

B5: T133I-E165I-F175I-Y161F: IEMT tetra mutant derived from MOMT3 (protein)
chain: MGSTGNAEIQIIPTHSSDEEANLFAMQLASAAVLPMALKAAIELDVLEIMAKSVPPSGYISPAEIAAQLPTTNPEAPVMLDRVLRLLASYSVVTYTLRELPSGKVERLYGLAPVCKFLTKNEDGVSLAPFLLIATDKVLLEPWFYLKDAILEGGIPFNKAFGMNIFDYHGTDHRINKVFNKGMSSNSTITMKKILEMYNGFEGLTTIVDVGGGTGAVASMIVAKYPSINAINFDLPHVIQDAPAFSGVEHLGGDMFDGVPKGDAIFIKWICHDWSDEHCLKLLKNCYAALPDHGKVIVAEYILPPSPDPSIATKVVIHTDALMLAYNPGGKERTEKEFQALAMASGFRGFKVASCAFNTYVMEFLKTA
B5 gave a Km [1] of 206 ± 25 µM, a Vmax [1] of 289 ± 12 nmol/mg/min and a Km [2] of 197 ± 21 µM. For the same molecule, the Vmax [2] was 642 ± 24 nmol/mg/min.

B6: T133I-E165I-F175I-H169F: MOMT4 tetra mutant expressed in Arabidopsis (protein)
chain: MGSTGNAEIQIIPTHSSDEEANLFAMQLASAAVLPMALKAAIELDVLEIMAKSVPPSGYISPAEIAAQLPTTNPEAPVMLDRVLRLLASYSVVTYTLRELPSGKVERLYGLAPVCKFLTKNEDGVSLAPFLLIATDKVLLEPWFYLKDAILEGGIPFNKAYGMNIFDYFGTDHRINKVFNKGMSSNSTITMKKILEMYNGFEGLTTIVDVGGGTGAVASMIVAKYPSINAINFDLPHVIQDAPAFSGVEHLGGDMFDGVPKGDAIFIKWICHDWSDEHCLKLLKNCYAALPDHGKVIVAEYILPPSPDPSIATKVVIHTDALMLAYNPGGKERTEKEFQALAMASGFRGFKVASCAFNTYVMEFLKTA
In the case of B6, the Km [1] is reported as 68 ± 11 µM, the Vmax [1] is reported as 408 ± 17 nmol/mg/min and the Km [2] is reported as 193 ± 25 µM. It also gave a Vmax [2] of 793 ± 32 nmol/mg/min.

B7: T133I-E165I-F175I-H169M: IEMT tetra mutant derived from MOMT3 (protein)
chain: MGSTGNAEIQIIPTHSSDEEANLFAMQLASAAVLPMALKAAIELDVLEIMAKSVPPSGYISPAEIAAQLPTTNPEAPVMLDRVLRLLASYSVVTYTLRELPSGKVERLYGLAPVCKFLTKNEDGVSLAPFLLIATDKVLLEPWFYLKDAILEGGIPFNKAYGMNIFDYMGTDHRINKVFNKGMSSNSTITMKKILEMYNGFEGLTTIVDVGGGTGAVASMIVAKYPSINAINFDLPHVIQDAPAFSGVEHLGGDMFDGVPKGDAIFIKWICHDWSDEHCLKLLKNCYAALPDHGKVIVAEYILPPSPDPSIATKVVIHTDALMLAYNPGGKERTEKEFQALAMASGFRGFKVASCAFNTYVMEFLKTA
Work on B7 yielded a Km [1] of 89 ± 10 µM, a Vmax [1] of 370 ± 11 nmol/mg/min and a Km [2] of 220 ± 27 µM. It also gave a Vmax [2] of 629 ± 26 nmol/mg/min.

B8: T133I-E165I-F175I-A325V: IEMT tetra mutant derived from MOMT3 (protein)
chain: MGSTGNAEIQIIPTHSSDEEANLFAMQLASAAVLPMALKAAIELDVLEIMAKSVPPSGYISPAEIAAQLPTTNPEAPVMLDRVLRLLASYSVVTYTLRELPSGKVERLYGLAPVCKFLTKNEDGVSLAPFLLIATDKVLLEPWFYLKDAILEGGIPFNKAYGMNIFDYHGTDHRINKVFNKGMSSNSTITMKKILEMYNGFEGLTTIVDVGGGTGAVASMIVAKYPSINAINFDLPHVIQDAPAFSGVEHLGGDMFDGVPKGDAIFIKWICHDWSDEHCLKLLKNCYAALPDHGKVIVAEYILPPSPDPSIATKVVIHTDALMLVYNPGGKERTEKEFQALAMASGFRGFKVASCAFNTYVMEFLKTA
Work on B8 yielded a Km [1] of 97 ± 7 µM, a Vmax [1] of 214 ± 4 nmol/mg/min and a Km [2] of 236 ± 50 µM. It also gave a Vmax [2] of 446 ± 33 nmol/mg/min.

B9: T133I-E165I-F175I-Y326F-N327V: IEMT penta mutant derived from MOMT3 (protein)
chain: MGSTGNAEIQIIPTHSSDEEANLFAMQLASAAVLPMALKAAIELDVLEIMAKSVPPSGYISPAEIAAQLPTTNPEAPVMLDRVLRLLASYSVVTYTLRELPSGKVERLYGLAPVCKFLTKNEDGVSLAPFLLIATDKVLLEPWFYLKDAILEGGIPFNKAYGMNIFDYHGTDHRINKVFNKGMSSNSTITMKKILEMYNGFEGLTTIVDVGGGTGAVASMIVAKYPSINAINFDLPHVIQDAPAFSGVEHLGGDMFDGVPKGDAIFIKWICHDWSDEHCLKLLKNCYAALPDHGKVIVAEYILPPSPDPSIATKVVIHTDALMLAFVPGGKERTEKEFQALAMASGFRGFKVASCAFNTYVMEFLKTA
Work on B9 yielded a Km [1] of 340 ± 30 µM, a Vmax [1] of 429 ± 15 nmol/mg/min and a Km [2] of 196 ± 44 µM. It also gave a Vmax [2] of 520 ± 25 nmol/mg/min.

B10: T133I-E165I-F175I-F166W-H169W: IEMT penta mutant derived from MOMT3 (protein)
chain: MGSTGNAEIQIIPTHSSDEEANLFAMQLASAAVLPMALKAAIELDVLEIMAKSVPPSGYISPAEIAAQLPTTNPEAPVMLDRVLRLLASYSVVTYTLRELPSGKVERLYGLAPVCKFLTKNEDGVSLAPFLLIATDKVLLEPWFYLKDAILEGGIPFNKAYGMNIWDYWGTDHRINKVFNKGMSSNSTITMKKILEMYNGFEGLTTIVDVGGGTGAVASMIVAKYPSINAINFDLPHVIQDAPAFSGVEHLGGDMFDGVPKGDAIFIKWICHDWSDEHCLKLLKNCYAALPDHGKVIVAEYILPPSPDPSIATKVVIHTDALMLAYNPGGKERTEKEFQALAMASGFRGFKVASCAFNTYVMEFLKTA
In the case of B10, the Km [1] is reported as 67 ± 10 µM, the Vmax [1] is reported as 160 ± 12 nmol/mg/min and the Km [2] is reported as 127 ± 8 µM. The Vmax [2] was 392 ± 9 nmol/mg/min.
